In the supplement of paper PMC10567573:

B1: ZNF8 (parent)
chain: KPYTCSVCGKSFSRTTCLFLHLRT

Variants of: B1
Assay: protein stability index of a GFP-peptide fusion (GPS, HEK-293T) (PSI 1-6); higher = more stable
Conditions: c terminus: a fixed tail appended
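Note: lentivirally expressed fusions sorted by FACS into six bins by GFP to DsRed ratio, PSI derived from sequencing read proportions per bin multiplied by bin number.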

| Variant | protein stability index |
| --- | --- |
| KPYTCRVCGKSFSRTTCLFLHLRT [S6R] | 2.14 |
| KPYTCTVCGKSFSRTTCLFLHLRT [S6T] | 1.73 |
| KPYTCVVCGKSFSRTTCLFLHLRT [S6V] | 2.45 |
| KPYTCWVCGKSFSRTTCLFLHLRT [S6W] | 1.66 |
| KPYTCYVCGKSFSRTTCLFLHLRT [S6Y] | 1.6 |
| KPYTCSACGKSFSRTTCLFLHLRT [V7A] | 2.12 |
| KPYTCSCCGKSFSRTTCLFLHLRT [V7C] | 2.82 |
| KPYTCSDCGKSFSRTTCLFLHLRT [V7D] | 1.71 |
| KPYTCSECGKSFSRTTCLFLHLRT [V7E] | 2.09 |
| KPYTCSFCGKSFSRTTCLFLHLRT [V7F] | 2.8 |
| KPYTCSGCGKSFSRTTCLFLHLRT [V7G] | 2.3 |
| KPYTCSHCGKSFSRTTCLFLHLRT [V7H] | 1.44 |
| KPYTCSICGKSFSRTTCLFLHLRT [V7I] | 2.2 |
| KPYTCSKCGKSFSRTTCLFLHLRT [V7K] | 1.75 |
| KPYTCSLCGKSFSRTTCLFLHLRT [V7L] | 2.87 |
| KPYTCSMCGKSFSRTTCLFLHLRT [V7M] | 2.29 |
| KPYTCSNCGKSFSRTTCLFLHLRT [V7N] | 2.15 |
| KPYTCSPCGKSFSRTTCLFLHLRT [V7P] | 2.7 |
| KPYTCSQCGKSFSRTTCLFLHLRT [V7Q] | 3.32 |
| KPYTCSRCGKSFSRTTCLFLHLRT [V7R] | 1.68 |
| KPYTCSSCGKSFSRTTCLFLHLRT [V7S] | 2.04 |
| KPYTCSTCGKSFSRTTCLFLHLRT [V7T] | 1.91 |
| KPYTCSWCGKSFSRTTCLFLHLRT [V7W] | 1.85 |
| KPYTCSYCGKSFSRTTCLFLHLRT [V7Y] | 2.3 |

| Variant | protein stability index |
| --- | --- |
| KPYTCSVAGKSFSRTTCLFLHLRT [C8A] | 2.56 |
| KPYTCSVDGKSFSRTTCLFLHLRT [C8D] | 3.17 |
| KPYTCSVEGKSFSRTTCLFLHLRT [C8E] | 3.46 |
| KPYTCSVFGKSFSRTTCLFLHLRT [C8F] | 4.22 |
| KPYTCSVIGKSFSRTTCLFLHLRT [C8I] | 2.07 |
| KPYTCSVKGKSFSRTTCLFLHLRT [C8K] | 2.45 |
| KPYTCSVLGKSFSRTTCLFLHLRT [C8L] | 2.28 |
| KPYTCSVMGKSFSRTTCLFLHLRT [C8M] | 2.19 |
| KPYTCSVQGKSFSRTTCLFLHLRT [C8Q] | 4.56 |
| KPYTCSVRGKSFSRTTCLFLHLRT [C8R] | 3.12 |
| KPYTCSVSGKSFSRTTCLFLHLRT [C8S] | 3.95 |
| KPYTCSVVGKSFSRTTCLFLHLRT [C8V] | 1.97 |
| KPYTCSVWGKSFSRTTCLFLHLRT [C8W] | 2.5 |
| KPYTCSVCAKSFSRTTCLFLHLRT [G9A] | 2.76 |
| KPYTCSVCCKSFSRTTCLFLHLRT [G9C] | 2.43 |
| KPYTCSVCDKSFSRTTCLFLHLRT [G9D] | 1.8 |
| KPYTCSVCEKSFSRTTCLFLHLRT [G9E] | 1.71 |
| KPYTCSVCFKSFSRTTCLFLHLRT [G9F] | 2.12 |
| KPYTCSVCHKSFSRTTCLFLHLRT [G9H] | 2.24 |
| KPYTCSVCIKSFSRTTCLFLHLRT [G9I] | 2.92 |
| KPYTCSVCKKSFSRTTCLFLHLRT [G9K] | 1.87 |
| KPYTCSVCLKSFSRTTCLFLHLRT [G9L] | 2.25 |
| KPYTCSVCMKSFSRTTCLFLHLRT [G9M] | 2.38 |
| KPYTCSVCNKSFSRTTCLFLHLRT [G9N] | 1.49 |

| Variant | protein stability index |
| --- | --- |
| KPYTCSVCPKSFSRTTCLFLHLRT [G9P] | 1.72 |
| KPYTCSVCQKSFSRTTCLFLHLRT [G9Q] | 1.89 |
| KPYTCSVCRKSFSRTTCLFLHLRT [G9R] | 2.2 |
| KPYTCSVCSKSFSRTTCLFLHLRT [G9S] | 1.72 |
| KPYTCSVCTKSFSRTTCLFLHLRT [G9T] | 1.5 |
| KPYTCSVCYKSFSRTTCLFLHLRT [G9Y] | 1.97 |
| KPYTCSVCGASFSRTTCLFLHLRT [K10A] | 1.79 |
| KPYTCSVCGCSFSRTTCLFLHLRT [K10C] | 1.77 |
| KPYTCSVCGDSFSRTTCLFLHLRT [K10D] | 2.03 |
| KPYTCSVCGESFSRTTCLFLHLRT [K10E] | 1.47 |
| KPYTCSVCGFSFSRTTCLFLHLRT [K10F] | 1.85 |
| KPYTCSVCGGSFSRTTCLFLHLRT [K10G] | 2.24 |
| KPYTCSVCGHSFSRTTCLFLHLRT [K10H] | 1.86 |
| KPYTCSVCGISFSRTTCLFLHLRT [K10I] | 1.65 |
| KPYTCSVCGLSFSRTTCLFLHLRT [K10L] | 1.94 |
| KPYTCSVCGMSFSRTTCLFLHLRT [K10M] | 2.88 |
| KPYTCSVCGNSFSRTTCLFLHLRT [K10N] | 2 |
| KPYTCSVCGPSFSRTTCLFLHLRT [K10P] | 2.84 |
| KPYTCSVCGQSFSRTTCLFLHLRT [K10Q] | 2.18 |
| KPYTCSVCGRSFSRTTCLFLHLRT [K10R] | 1.87 |
| KPYTCSVCGSSFSRTTCLFLHLRT [K10S] | 1.52 |
| KPYTCSVCGTSFSRTTCLFLHLRT [K10T] | 2.25 |
| KPYTCSVCGVSFSRTTCLFLHLRT [K10V] | 1.83 |
| KPYTCSVCGWSFSRTTCLFLHLRT [K10W] | 2.83 |

| Variant | protein stability index |
| --- | --- |
| KPYTCSVCGYSFSRTTCLFLHLRT [K10Y] | 2.21 |
| KPYTCSVCGKAFSRTTCLFLHLRT [S11A] | 2.08 |
| KPYTCSVCGKCFSRTTCLFLHLRT [S11C] | 1.91 |
| KPYTCSVCGKDFSRTTCLFLHLRT [S11D] | 1.88 |
| KPYTCSVCGKEFSRTTCLFLHLRT [S11E] | 2.67 |
| KPYTCSVCGKFFSRTTCLFLHLRT [S11F] | 1.72 |
| KPYTCSVCGKGFSRTTCLFLHLRT [S11G] | 1.51 |
| KPYTCSVCGKHFSRTTCLFLHLRT [S11H] | 3.04 |
| KPYTCSVCGKIFSRTTCLFLHLRT [S11I] | 2.33 |
| KPYTCSVCGKKFSRTTCLFLHLRT [S11K] | 2.92 |
| KPYTCSVCGKLFSRTTCLFLHLRT [S11L] | 1.69 |
| KPYTCSVCGKMFSRTTCLFLHLRT [S11M] | 1.76 |
| KPYTCSVCGKNFSRTTCLFLHLRT [S11N] | 2.12 |
| KPYTCSVCGKPFSRTTCLFLHLRT [S11P] | 1.72 |
| KPYTCSVCGKQFSRTTCLFLHLRT [S11Q] | 2.21 |
| KPYTCSVCGKRFSRTTCLFLHLRT [S11R] | 2.12 |
| KPYTCSVCGKTFSRTTCLFLHLRT [S11T] | 2.2 |
| KPYTCSVCGKVFSRTTCLFLHLRT [S11V] | 1.84 |
| KPYTCSVCGKWFSRTTCLFLHLRT [S11W] | 1.71 |
| KPYTCSVCGKYFSRTTCLFLHLRT [S11Y] | 2.2 |
| KPYTCSVCGKSASRTTCLFLHLRT [F12A] | 1.76 |
| KPYTCSVCGKSCSRTTCLFLHLRT [F12C] | 1.54 |
